Measured values: patent publication US20230099646A1 (published 2023)

Target: T1, cynomolgus monkey CD19 (cCD19) (cynomolgus monkey)
T1 construct: Expressed on transiently transfected 293 cells
T1 chain: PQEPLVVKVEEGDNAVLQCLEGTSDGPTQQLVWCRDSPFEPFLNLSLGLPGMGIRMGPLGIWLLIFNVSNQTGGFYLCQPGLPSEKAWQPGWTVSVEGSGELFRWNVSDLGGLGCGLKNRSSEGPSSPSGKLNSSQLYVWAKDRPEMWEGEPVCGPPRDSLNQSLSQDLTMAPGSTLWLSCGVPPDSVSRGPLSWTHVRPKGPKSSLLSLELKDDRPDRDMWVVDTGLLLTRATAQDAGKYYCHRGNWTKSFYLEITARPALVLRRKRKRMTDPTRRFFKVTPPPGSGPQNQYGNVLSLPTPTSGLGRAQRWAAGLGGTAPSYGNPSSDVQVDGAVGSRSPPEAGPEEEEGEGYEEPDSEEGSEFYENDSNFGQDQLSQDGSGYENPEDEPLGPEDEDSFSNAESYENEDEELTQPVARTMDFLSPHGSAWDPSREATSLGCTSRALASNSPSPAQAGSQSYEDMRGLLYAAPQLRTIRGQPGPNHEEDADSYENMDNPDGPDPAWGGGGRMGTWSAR
Assay: flow cytometry on transfected 293 cells
Method: In brief, first, the expression of CD19 protein was identified.
Binding to GFP-positive cells was analyzed on the basis of mean fluorescence intensity (MFI).

binding result: no binding
B1: CD19_12.18 antibody (scFv, V domains shown)
VH: AVTLDESGGGLQTPGGALSLVCKASGFTFSSYDMGWVRQAPGKGLEFVAGIDDDGRYTSYGSAVDGRATISRDNGQSTVRLQLNNLRAEDTATYYCTRGNAGWIDAWGHGTEVIVSS
VL: LTQPSSVSANPGETVKITCSGGYSSYYGWYQQKSPGSAPVTLIYESNKRPSDIPSRFSGSASGSTATLTITGVQVEDEAVYYCGGWDSTHAGIFGAGTTLTVLG
notes: Chicken-derived antibody, tested as an Fc fusion (Anti-CD19 scFv-Fc) made in FreeStyle 293F cells; also called CD19_1218-Fc; Anti-CD19 scFv-Fc
